Assay results taken from PMC7318764, “Shrimp miR-965 induced the human melanoma stem-like cell apoptosis and inhibited their stemness by disrupting the MCL-1-ER stress-XBP1 feedback loop in a cross-species manner”.

Biological target: Ago2 (human, UniProt Q9UKV8 1-859)
Test: EMSA; Ago2 12.5, 25, 50, 100 mM (so in the source) with 40 mM miR-965; 1 mM MgCl2; shifted band increases with Ago2; 0.1 M KCl, 1 mM DTT, 1 mM MgCl2, 10 mM HEPES pH 7.6, 30 min at 37 C; 1% agarose gel, ethidium bromide then Coomassie stain
Details: protein: recombinant; single strand printed

Chain of Ago2 (Q9UKV8 whole entry): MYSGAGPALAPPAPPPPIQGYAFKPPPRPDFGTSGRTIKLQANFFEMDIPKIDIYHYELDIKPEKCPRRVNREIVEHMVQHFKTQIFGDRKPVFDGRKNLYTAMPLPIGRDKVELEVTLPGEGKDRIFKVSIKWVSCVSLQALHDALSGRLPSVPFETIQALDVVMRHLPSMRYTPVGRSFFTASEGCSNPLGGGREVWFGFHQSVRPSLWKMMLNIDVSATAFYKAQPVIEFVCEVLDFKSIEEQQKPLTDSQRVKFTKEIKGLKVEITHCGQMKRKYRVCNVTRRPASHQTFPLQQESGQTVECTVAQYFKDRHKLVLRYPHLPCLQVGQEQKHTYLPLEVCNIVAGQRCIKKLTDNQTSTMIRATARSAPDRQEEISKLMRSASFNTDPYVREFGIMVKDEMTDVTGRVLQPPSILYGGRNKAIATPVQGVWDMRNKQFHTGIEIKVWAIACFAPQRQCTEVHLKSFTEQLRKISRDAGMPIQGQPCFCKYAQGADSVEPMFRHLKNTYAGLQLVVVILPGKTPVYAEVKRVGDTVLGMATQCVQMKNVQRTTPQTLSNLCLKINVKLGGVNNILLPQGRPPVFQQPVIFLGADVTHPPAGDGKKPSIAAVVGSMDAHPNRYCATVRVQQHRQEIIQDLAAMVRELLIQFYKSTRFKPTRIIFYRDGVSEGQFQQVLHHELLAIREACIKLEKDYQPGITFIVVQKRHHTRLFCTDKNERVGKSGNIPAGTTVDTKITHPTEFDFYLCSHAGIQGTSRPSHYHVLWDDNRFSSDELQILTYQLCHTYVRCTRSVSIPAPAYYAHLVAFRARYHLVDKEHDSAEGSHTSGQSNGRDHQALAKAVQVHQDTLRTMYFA

UAAGCGUAUGGCUUUUCCCCUC (ssRNA) [shrimp miR-965]: binds.
